Article PMC8609364, “A Selective Tether Recruits Activated Response Regulator CheB to Its Chemoreceptor Substrate” (mBio, 2021)

Tests used:
[1] = tested on: Tar4E (chemoreceptor Tar, all-glutamyl, pentapeptide-bearing); assay: CheB binding to pentapeptide-bearing Tar4E in Nanodiscs (biolayer interferometry); design: species or system E. coli; conditions: Tar 4E, pentapeptide yes, BLI; for dwell time (1/koff) / KA (equilibrium association constant) / kon (apparent association rate constant): pH 7.5, 2% BSA (plus 2 mM DTT for CheB and CheBc); for dwell time (1/koff): calculated from mean koff; for kon (apparent association rate constant): mean ± SD of at least three independent experiments
Experimental: We determined the kinetics of association and dissociation of methylesterase/deamidase CheB in its low- and high-activity form with the E. coli aspartate chemoreceptor Tar using biolayer interferometry ([22], [23]) and isolated receptor homodimers in Nanodiscs ([24], [25]). Apparent rate constants of association and dissociation were derived from global fits of time courses for binding and release (see Fig. S1 in the supplemental material). Equilibrium dissociation constants were calculated from those apparent rate constants.
Supplementary file : FIG S1 Example time courses of CheB binding to Tar. Time courses from five consecutive runs of CheB at different concentrations binding to immobilized Tar4E homodimers. For each time course, a sensor tip decorated with avidin to which were bound biotinylated Tar homodimers in Nanodiscs was placed in buffer and a baseline was established (240 to 255 s). The tip was then placed in a tube containing a solution of CheB at a specific concentration. After 30 s, at which time binding of CheB and Tar was close to an apparent equilibrium, the tip was switched to a tube of buffer, and dissociation was monitored. The global fit to the data is shown as a thin black line. Download FIG S1, TIF file, 1.9 MB.
E. coli CheB and Salmonella CheB D56C/C207S/C309S and D56C/S164A/C207S/C309S were purified as described previously ([11]). CheBC (amino acids [aa] 153 to 349) was purified using the procedure of West et al. ([40]), except that Bio-Gel P-60, was not used. CheB D56C/C207S/C309S and CheB D56C/S164A/C207S/C309S were modified to create a disulfide-linked phosphoryl group on D56C following the procedure described in reference but using a 10-fold molar excess of DTNB [Ellman’s reagent, 5,5′-disulfanediylbis(2-nitrobenzoic acid)] rather than 90-fold and a 50-fold molar excess Na3SPO3 rather than 1,000-fold. The extent of modification was 59% for the former and 60% for the latter determined by reversed phase chromatography essentially as described previously ([26]) and confirmed by Nano LC-Nanospray QTQF mass spectroscopy. Membrane scaffold protein MSP1D1(-) ([41]) was purified as described previously ([25]). Tar4E L378C, Tar4Q L378C, Tar4EΔpp-6H L378C, and Tar4QΔpp-6H L378C were purified, incorporated into Nanodiscs at approximately one receptor dimer per disc, and biotinylated at L378C as described previously ([23], [42]). […] These activities were confirmed for representative samples used in our analyses. Receptor-containing Nanodiscs were dialyzed into 50 mM Tris-HCl (pH 7.5), 0.5 mM EDTA, 10% (wt/vol) glycerol, and 100 mM NaCl. Prior to a binding experiment, the solution was changed using a spin desalting column to 50 mM Tris-HCl, 10% (wt/vol) glycerol, 5 mM MgCl2, and 50 mM KCl (pH 7.5).
Kinetics of CheB association and dissociation with Nanodisc-embedded Tar biotinylated at L378C were determined using biolayer interferometry ([22], [23]) as measured by a BLItz instrument (ForteBio, Menlo Park, CA, USA) and described in reference. Representative time course experiments are shown in Fig. S1 in the supplemental material. Measurements for CheB-P* and CheB-P*-I were in 50 mM Tris-HCl (pH 7.5), 10% (wt/vol) glycerol, 5 mM MgCl2, 50 mM KCl, and 2% (wt/vol) bovine serum albumin (BSA). Measurements for CheB and CheBc were in the same solution plus 2 mM dithiothreitol (DTT).
Using BLItz software, response curves were fit globally to a 1:1 binding model to yield apparent association rate constants (kon) and dissociation rate constants (koff). For analysis of complex patterns of binding, in which more than one binding reaction appeared to be contributing, for instance one that appeared saturable and another nonspecific, nonsaturable, the data were exported and fit globally to nonlinear exponential functions using OriginPro 2017. The best fits to the data were obtained using the following functions. […]

[2] = biological target: Tar4Q L378C, E. coli aspartate chemoreceptor Tar, all-glutaminyl form with carboxyl-terminal pentapeptide, … (E. coli, UniProt P07017 1-553, L378C, biotinylated at L378C); assay: SPR
[3] = biological target: Tar4EΔpp-6H L378C, E. coli Tar lacking the carboxyl-terminal pentapeptide, all-glutamyl form, homodimer in … (E. coli, UniProt P07017 1-553, L378C, biotinylated at L378C); assay: SPR
[4] = biological target: Tar4E L378C, E. coli aspartate chemoreceptor Tar, all-glutamyl form with carboxyl-terminal pentapeptide, … (E. coli, UniProt P07017 1-553, L378C, biotinylated at L378C); assay: SPR
[5] = biological target: Tar4QΔpp-6H L378C, E. coli Tar lacking the carboxyl-terminal pentapeptide, all-glutaminyl form, homodimer in … (E. coli, UniProt P07017 1-553, L378C, biotinylated at L378C); assay: SPR
[6] = calculated from mean kon and koff, propagated SD

Molecule	dwell time (1/koff) ([1]; propagated SD) [s]	KA (equilibrium association constant) [1, 6]	kon (apparent association rate constant) [1]	koff [2] [s⁻¹]	koff [3] [s⁻¹]	koff [4] [s⁻¹]	koff [5] [s⁻¹]	Kd ([1]; 50 mM Tris-HCl pH 7.5, 10% glycerol, 5 mM MgCl2, 50 mM KCl, 2% BSA (plus 2 mM DTT for CheB and CheBc), calculated from mean kon and koff, propagated SD, read-out: KD (equilibrium dissociation constant)) [µM]
CheBC, catalytic domain of E. coli CheB lacking the regulatory domain and linker (domain or fragment) LSSEKLIAIGASTGGTEAIRHVLQPLPLSSPALLITQHMPPGFTRSFADRLNKLCQIGVKEAEDGERVLPGHAYIAPGDRHMELSRSGANYQIKIHDGPAVNRHRPSVDVLFHSVAKQAGRNAVGVILTGMGNDGAAGMLAMRQAGAWTLAQNEASCVVFGMPREAINMGGVCEVVDLSQVSQQMLAKISAGQAIRI	2.1 ± 0.1	1.7 ± 0.4 10^3 M^-1	810 ± 200 M⁻¹ s⁻¹	0.48	0.44	0.48	0.58	
methylesterase/deamidase CheB from E. coli, low-activity, unphosphorylated form (enzyme, UniProt P07330 1-349, looked up, CheB methylesterase/deamidase of E. coli, unphosphorylated, from plasmid pCW/cheB; measured with 2 mM DTT in the buffer; also called low-activity CheB; unmodified CheB; source: E. coli K-12 RP3098 with pCW/cheB, purified) MSKIRVLSVDDSALMRQIMTEIINSHSDMEMVATAPDPLVARDLIKKFNPDVLTLDVEMPRMDGLDFLEKLMRLRPMPVVMVSSLTGKGSEVTLRALELGAIDFVTKPQLGIREGMLAYNEMIAEKVRTAAKASLAAHKPLSAPTTLKAGPLLSSEKLIAIGASTGGTEAIRHVLQPLPLSSPALLITQHMPPGFTRSFADRLNKLCQIGVKEAEDGERVLPGHAYIAPGDRHMELSRSGANYQIKIHDGPAVNRHRPSVDVLFHSVAKQAGRNAVGVILTGMGNDGAAGMLAMRQAGAWTLAQNEASCVVFGMPREAINMGGVCEVVDLSQVSQQMLAKISAGQAIRI	2.8 ± 0.2	4.4 ± 1 10^3 M^-1	1,600 ± 420 M^-1s^-1	0.46	0.64	0.36	0.65	230 ± 60
